Laboratory results published in the supplement of paper PMC9170038.

System: MS2 coat protein
Test: apparent KD of MS2 coat protein; designed switch direction (-1 OFF switch, 1 ON switch): -1; higher = weaker reporter binding
Procedure, shortened: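 On Illumina chips, designed RNA switches with common flanks were made by stalled E. coli RNA polymerase. Titrations with SNAP-549-labelled MS2 coat protein, doubling from 0.7 or 1.5 nM to 3 µM, were done with no input, with 200 uM small-molecule ligand, or with an oligonucleotide input. Apparent KD is the median per design over clusters, from curve fits of normalised cluster fluorescence.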

[1] = Eterna round: R95, input ligand: microRNA oligo, concentration not stated
[2] = input ligand: microRNA oligo, concentration not stated
[3] = Eterna round: R95, input ligand: FMN 200 uM
[4] = Eterna round: R95, input ligand: none

Sequence | apparent KD of MS2 coat protein (input ligand: FMN 200 uM) [nM] | apparent KD of MS2 coat protein (input ligand: none) [nM] | apparent KD of MS2 coat protein [1] [nM] | further results
CCGACUCAAGGAUAUUGUACUGCUGACAUGAGGAUCACCCAUGUGUCCUGACGCGGACGACGAGAAGGUGACGACA [Eternabot (Original) Solution 44] (Eterna round: R97, puzzle: Exclusion 5) | 981 | 292 |  | 
CAGGAUAGAGGAUAUACAUAGAUACAGAUUCAUGUAAUCCUACAUGAGGAUCACCCAUGUAGAAGGCUAUCCUG [Fiskers Ex 2 - 16] (puzzle: Exclusion 2) |  |  | 15.4 | 
UAUUAGCAAGCGAGAUCCCACAUGAGGAUCACCCAUGUGCUCGUCUUAUAAAGUACUGUGACGAAAGUCACGGUACG [Mat - Sensor, turn-off var - Eli Mod - D10] (Eterna round: R97, puzzle: Sensor, turn-off variant 1) | 15.1 | 14.6 |  | 
UGGCAAGUAGGAUAUUGGGUGUGGGACAUGAGGAUCACCCAUGUGAUCACUCAAUCUCUCCGAGAAGGGCUAAGAA [Araes] (puzzle: Exclusion 5) |  |  | 14 | 
CCGCAAAAGCAGGAUAUCGUAUCGGAUACGAUACGAGAAGGGUUUACAUGAGGAUCACCCAUGUUCCUUAGCGG [Fiskers Ex 6 - 32] (puzzle: Exclusion 6) |  |  | 26.8 | 
ACCGCAAGAGGAUAUACAUGAGGAUCACCCAUGUCGACCGCGAGAGACGUGGACCGGCGUAGAAGGCUUGCCAC [Eternabot (Original) Solution 50] (Eterna round: R97, puzzle: Exclusion 3) | 355 | 56.8 |  | 
AAUAACAGAGGAUAUACUAUUUUAUGUGUUUGUUGUUUUGAACAUGAGGAUCACCCAUGUAGAAGGCUGAUUGA [JMF 80] (puzzle: Exclusion 2) |  |  | 39.6 | 
AGCUGUGGCCGAGGAUAUCACGAACCAUGGAAAACCAUGGAACUCAAACAUGAGGAUCACCCAUGUGAGAAGGCGGUCUCAGCA [Eli eng2 - 018] (Eterna round: R96, puzzle: Exclusion NG 2) |  |  |  | apparent KD of MS2 coat protein [2]: 15.2 nM
CCAGCGUAUGUGAGGAUAUGCUGGUCCUUGGAUCAGCAGAAGGCACAUGAGGAUCACCCAUGUGGUGUCGUUGG [JL bmx4 3.45] (puzzle: Brourd's mod of Exclusion 4) |  |  | 149 | 
AUACGUGAGAAGGAUAUCACACGCCAGAGGCGUUGAGAAGGUUUCACAUGAGGAUCACCCAUGUGCUCUUCCAG [Orlaa] (Eterna round: R97, puzzle: Exclusion 6) | 61.3 | 23.5 |  | 
UCGUUUUUUGAGGAUAUGCGACGUUUUUUCGUCGUAGAAGGCGAUACAUGAGGAUCACCCAUGUUUAUGGGCAU [LRO-Ex6-15] (puzzle: Exclusion 6) |  |  | 148 | 
GGUCGGCGAGGAUAUACAUGAGGAUCACCCAUGUGAUAGAUUGCUUCGUGAGAAGUAUGUAGAAGGCGCUGACG [jl-ex3-4.04 jl mod] (Eterna round: R97, puzzle: Exclusion 3) | 320 | 38.7 |  | 
AAUGAUUCAGGAUAUACAUGAGGAUCACCCAUGUUGGUGUCCCUCCCAAAGUUGCAGUGUAGAAGGGAGUCCCG [Tigezaonbi] (puzzle: Exclusion 3) |  |  | 132 | 
UGAUUGAUUAACAGAUUAUACAUGAGGAUCACCCAUGUAGGUCCUACGUGCACUUUAUGCAGCUCGUCUUAUUCCCA [Sensor-V1 #71] (Eterna round: R97, puzzle: Sensor, turn-off variant 1) | 34.4 | 36.5 |  | 
CAUGAUCUUCGGAUCAUGUACAUGAGGAUCACCCAUGUGACGAGUUUAUGGGUGAACAAGCUUUUUGCUCGUCUUAU [Sensor v3 - Turn-off variant 1 - 6] (puzzle: Sensor v3, turn-off variant 1) |  |  | 11.2 | apparent KD of MS2 coat protein [3]: 60 nM; apparent KD of MS2 coat protein [4]: 68.9 nM
UCCUCACAUGAGGAUCACCCAUGUCAGGAUAUACGAACGGUAAGUGACAAUCGAUUACGUAGAAGGGACUGCGG [Eternabot (L1) Solution 78] (Eterna round: R97, puzzle: Exclusion 1) | 110 | 121 |  | 
AAGACCAGAGGAUAUCAGACGCGGCACAUGAGGAUCACCCAUGUAUUCCCGUCUGCCGACUGAGAAGGUUGGAAAG [Xeusbi] (puzzle: Exclusion 5) |  |  | 9.41 | 
CUAGAUCUUCGGAUCUAGUACAUGAGGAUCACCCAUGUGACGAGUUGAUCCUCAAACAAGCUUUUUGCUCGUCUUAU [Sensor v3 - Turn-off variant 1 - 17] (puzzle: Sensor v3, turn-off variant 1) |  |  | 16 | apparent KD of MS2 coat protein [3]: 19.9 nM; apparent KD of MS2 coat protein [4]: 22.1 nM

Sequence | apparent KD of MS2 coat protein (input ligand: FMN 200 uM) [nM] | apparent KD of MS2 coat protein (input ligand: none) [nM] | apparent KD of MS2 coat protein [1] [nM] | further results
AAAGUGUAAGGAUAUCCGAAAAGCGAGCGAAAGCGAGCGAAGGAGAAGGUACAUGAGGAUCACCCAUGUAAGGG [AK-MS2ROC-r4-exclusion4-11.5] (Eterna round: R97, puzzle: Exclusion 4) | 215 | 961 |  | 
AAAUCGGUAGAGGAUAUUGUACAGGAAACGGUGCAAGAAGGUUGCACAUGAGGAUCACCCAUGUUAAAUUGCGA [EX6 #51] (Eterna round: R97, puzzle: Exclusion 6) | 39.4 | 38.8 |  | 
UUUAUGUCAGGAUAUGAGUAGUAGAACAAUAGUACUACUACUCAGAAGGGACAUGAGGAUCACCCAUGUUCUUC [Fiskers Ex 4 Super stable 44 mod 23] (puzzle: Exclusion 4) |  |  | 16.3 | 
AGUAACAGAGGAUAUACUAUUUUAUGUGUUUGUUGUUUUGAACAUGAGGAUCACCCAUGUAGAAGGCUGAAUAA [JMF 96] (puzzle: Exclusion 2) |  |  | 24.1 | 
CGACAGGGAGGAUAUACAUGAGGAUCACCCAUGUUCAAGCGUCCUUGAACUACCUCUGGUAGAAGGCCCUAAAG [jl-ex3-4.67 ViennaUCT mod] (Eterna round: R97, puzzle: Exclusion 3) | 44.6 | 123 |  | 
UAACUUCUUGUAAGGAUAUUGGCGCGAAAGCGCACCGAGAAGGUACAUGAGGAUCACCCAUGUGAAAUAAGAAU [Mod of Zala 13 - Jieux - Brourd's Mod of Exclusion 4] (Eterna round: R97, puzzle: Brourd's mod of Exclusion 4) | 47.5 | 27.2 |  | 
CAGGUGUUAGGAUAUCGGAGAUCGAGACCGACGGGAUGAGCCGAGAAGGAACAUGAGGAUCACCCAUGUAGGUG [JR_Exclu4_Sub034] (Eterna round: R96, puzzle: Exclusion 4) |  |  |  | apparent KD of MS2 coat protein [2]: 304 nM
AGUUGGCGAGGAUAUACAUGAGGAUCACCCAUGUGAGAGAUACUAGUGAGGUCGAUGAGUAGAAGGCGCUGACA [Mat X3R4 m18] (Eterna round: R97, puzzle: Exclusion 3) | 186 | 142 |  | 
AUUAACAUGUUGAUCAAAUACAUGAGGAUCACCCAUGUAUGCUUUUUGCUCGAUAAGAUCAACUAAUUAAUUAAUUA [StovNew/1-B] (Eterna round: R97, puzzle: Sensor, turn-off variant 1) | 13.9 | 12.6 |  | 
AAUAGGACAGGAUAUCCGGAGUCGAACAUGAGGAUCACCCAUGUGAUGAGGAUGUUCGCUGGAGAAGGGUCUGGCU [Atisdiis] (puzzle: Exclusion 5) |  |  | 124 | apparent KD of MS2 coat protein [3]: 83.9 nM; apparent KD of MS2 coat protein [4]: 176 nM
GUCAGCUCGUGAGGAUAUACAUGAUAGAUCGAUUAAUUAAUUAAUUUAACAUGAGGAUCACCCAUGUAGAAGGCACGAGCUGAC [ENG2/1-A1] (Eterna round: R96, puzzle: Exclusion NG 2) |  |  |  | apparent KD of MS2 coat protein [2]: 30.9 nM
AGCUAGUCAGGAUAUUCUAUUAAUUACAUGAGGAUCACCCAUGUGAAUGGGCAAGGGUGUGAAGAAGGGACUAGCG [Omei Ex5 A16] (Eterna round: R97, puzzle: Exclusion 5) | 305 | 1030 |  | 
GAACAGGUAGGAUAUACUGGACGCGACAUGAGGAUCACCCAUGUCCUCGGCAUAGGCGCUGUAGAAGGGCCUAAAA [Eternabot (Original) Solution 29] (Eterna round: R97, puzzle: Exclusion 5) | 29.9 | 30.2 |  | 
AAUUAGUAUGUGAGGAUAUUGAUGUAAUGACGGUUUAAGAAGGCACAUGAGGAUCACCCAUGUAAAUGAUCACG [JR_BMEx4_Sub008] (Eterna round: R97, puzzle: Brourd's mod of Exclusion 4) | 74.4 | 37.7 |  | 
GCACGGAGUGUAGGAUAUUAGUGCGAUUAGCACUGAGAAGGACAUGAGGAUCACCCAUGUUCCUCUAAAAUUAGCCUUCCGUGC [Eli exng1 - 036] (Eterna round: R96, puzzle: Exclusion NG 1) | 12.4 | 14.8 |  | apparent KD of MS2 coat protein [2]: 10.7 nM
CGAUGCUCGUGGCCACAUGAGGAUCACCCAUGUCGAGUUAGCGAGGAUAUCGGUAGCACAUAUCACGAGAAGGCGCGAACCUGA [Ex NG3 #29] (Eterna round: R96, puzzle: Exclusion NG 3) | 32.3 | 12 |  | apparent KD of MS2 coat protein [2]: 10.9 nM
GAUAAGGUAGGAUAUACGAAUAAAUAGGGUAGAAUAAUAACACAUGAGGAUCACCCAUGUAGAAGGACCAAUAG [Mat - Exclusion 2 - Mod of my Tesla design - D26] (puzzle: Exclusion 2) |  |  | 25.6 | apparent KD of MS2 coat protein [3]: 38.9 nM; apparent KD of MS2 coat protein [4]: 26.3 nM
UUGGAUGUUGAGGAUAUGCUGGUGUUUAUUAUAGCAGAAGGCGAUACAUGAGGAUCACCCAUGUUCAUGGCUUU [JR_E6_Sub100] (puzzle: Exclusion 6) |  |  | 12.4 | 
